Data on 4 molecules can be found in PMC4618531 (BMC Microbiology, 2015).

Data set [1] concerns the target Ralstonia solanacearum FabG2 (3-ketoacyl-ACP reductase, RSp0359), N-terminal hexahistidine-tagged (Ralstonia solanacearum GMI1000). The experiment in a line: SEC. On the technique in general: In gel filtration, larger molecules generally elute earlier.
Data set [2] concerns the target Ralstonia solanacearum FabG1 (3-ketoacyl-ACP reductase, RSc1052), N-terminal hexahistidine-tagged (Ralstonia solanacearum GMI1000). The experiment in a line: SEC.
The next data set deals with T1, RsFabG2 (Ralstonia pseudosolanacearum, UniProt Q8XSV8).
T1 construct: gene fabG2
The conditions noted are these: 50 μM NADPH, malonyl-ACP plus octanoyl-ACP or tetradecanoyl-ACP, 0.1 M sodium phosphate pH 7.0, 37 °C.

Substrate in data set [3]: NC(=O)C1=CN([C@@H]2O[C@H](COP(=O)(O)OP(=O)(O)OC[C@H]3O[C@@H](n4cnc5c(N)ncnc54)[C@H](OP(=O)(O)O)[C@@H]3O)[C@@H](O)[C@H]2O)C=CC1
The experiment in a line: purified protein. The conditions noted are these: 200 μM acetoacetyl-CoA, 0.1 M sodium phosphate pH 7, 0.1 M LiCl, varied: cofactor.

Substrate in data set [4]: CC(=O)CC(=O)SCCNC(=O)CCNC(=O)[C@H](O)C(C)(C)COP(=O)(O)OP(=O)(O)OC[C@H]1O[C@@H](n2cnc3c(N)ncnc32)[C@H](O)[C@@H]1OP(=O)(O)O
The experiment in a line: purified protein. To be noted: 200 μM NADPH, 0.1 M sodium phosphate pH 7, 0.1 M LiCl.

With “Ralstonia solanacearum FabG2 (3-ketoacyl-ACP reductase, RSp0359), N-terminal hexahistidine-tagged (enzyme)”, the stoichiometry N – broadly, a count of units in the complex or per binding partner – in data set [1] is 4.

With “Ralstonia solanacearum FabG1 (3-ketoacyl-ACP reductase, RSc1052), N-terminal hexahistidine-tagged (enzyme)”, the stoichiometry N in data set [2] was determined as 4.

Take `NC(=O)C1=CN([C@@H]2O[C@H](COP(=O)(O)OP(=O)(O)OC[C@H]3O[C@@H](n4cnc5c(N)ncnc54)[C@H](OP(=O)(O)O)[C@@H]3O)[C@@H](O)[C@H]2O)C=CC1` [NADPH]: the “reconstituted 3-ketoacyl-ACP reduction with EcFabB and EcFabZ, urea gel” value at RsFabG2 is “Upon the addition of NADPH, a 3-ketoacyl-ACP reductase (EcFabG, RsFabG1 or RsFabG2) and EcFabZ”.

B1: EcFabG (Escherichia coli K-12) (protein)
chain: MNFEGKIALVTGASRGIGRAIAETLAARGAKVIGTATSENGAQAISDYLGANGKGLMLNVTDPASIESVLEKIRAEFGEVDILVNNAGITRDNLLMRMKDEEWNDIIETNLSSVFRLSKAVMRAMMKKRHGRIITIGSVVGTMGNGGQANYAAAKAGLIGFSKSLAREVASRGITVNVVAPGFIETDMTRALSDDQRAGILAQVPAGRLGGAQEIANAVAFLASDEAAYITGETLHVNGGMYMV
Consider B1, for which, in “purified protein [3]”, the Km (as a rule, the substrate concentration at which the rate is half of its maximum) is 5.41 ± 1.3 µM; the Vmax (in general, the rate approached at saturating substrate) was found to be 3.54 µmol/min/mg; the kcat (usually the number of substrate molecules converted per active site and unit of time at saturation) turned out to be 1.65 ± 0.43 s⁻¹. Besides, in “purified protein [4]”, the Km was found to be 4372.6 ± 105.1 µM, the Vmax was 97 µmol/min/mg and the kcat was found to be 45.28 ± 4.3 s⁻¹.
